Test system: K4 kissing-loop RNA reporter
Test: apparent KD of K4 kissing-loop reporter; higher = weaker reporter binding
Settings: Eterna round: R107
Protocol: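 RNA-MaP round R107: designed RNA switches with theophylline, tryptophan, arginine or FMN aptamers are transcribed on-chip within common flanks. They are titrated with a labelled K4 kissing-loop RNA reporter in RNA-MaP buffer (100 mM Tris pH 7.5, 80 mM KCl, 4 mM MgCl2), without ligand or with the indicated ligand. Median apparent KD per design.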

[1] = input ligand: theophylline 20 uM
[2] = input ligand: tryptophan 2.4 mM
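Further: bound reporter read as fluorescence of individual clusters on recovered sequencing chips by microscopy, with normalized cluster intensities fitted with a binding model.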

Row | Sequence | apparent KD of K4 kissing-loop reporter (input ligand: FMN 200 uM) [nM] | apparent KD of K4 kissing-loop reporter (input ligand: arginine 13.2 mM) [nM] | apparent KD of K4 kissing-loop reporter (input ligand: none) [nM] | apparent KD of K4 kissing-loop reporter [1] [nM] | apparent KD of K4 kissing-loop reporter [2] [nM]
1 | GAUUGAGGAAACUCGAUCUUAUAUCCUAGGCAGGAUAUGCGGAAACGCAGAAGGGCCACCUAGCAGUGAUGUUGCAAGCGAAAGC [Ex FMN A 5] | 203 | 425 | 379 | 471 | 207
2 | AGUAUGGCAACAUUGCAAGUAGCCGUACCACGAGGACCGGUACGGCCGCCACUCGAUAACUUGCAGUGAUGUUGCAAGUAAGAAU [(T)''-(K)'-(T)'-(T1)-(T2)-(K1)-(K2)_Design4] | 193 | 206 | 227 | 268 | 199
3 | CUAUGGGUGGACGAUACCAGCUAGUGAUGUUAGCGGGUCGAGCACGCGCAUCGCCGUGGUAGCCCUUGGCAGCGUACAGAUGUUU [theeternabot_exclusion_KL_Theo_B_5] | 186 | 131 | 178 | 157 | 162
4 | GCGAUUCAGUGAUGUUGGAAAUACAGGGAUACCAGCCGAAAAUAAGGCCCUUGGCAGCUUAAUAGGAAAGAACUAAGAAAGACGC [Theophylline A Same State; Euphoria Solution 3] | 556 | 603 | 671 | 755 | 460
5 | AGGAUCCGUCGACAAAAGUCGACAUAAACCAAGGAUAUGACGAAAGUCAGAAGGUGGUCAUAAGACCAGUGAUGUUGGUGGAUCC [FmnA 11 #SwitchBubble #K4Late] | 984 | 268 | 467 | 309 | 379
6 | UCCUGUUGUCAGCCACGAAAGUGGAUUGAUACCAGAGUCGAAAGACUCCCUUGGCAGCGAGUGAUGUUCGCAGCAGGUAAAUAAA [MatMod 4 - Jieux - Exclusion - Theophylline A] | 211 | 157 | 209 | 207 | 178
7 | UUGGGCAGUGAUGUUGGCUAGGCCACAGAUACCAGACGCAUGCACGUCCCUUGGCAGCUGCGAAAGUUAGACUUGUAAUGAUAGU [theeternabot_sameState_KL_Theo_A_45] | 418 | 181 | 321 | 338 | 217
8 | AACUGCCAAGGAACAUUGUAAGAAGGUGAUACCAGCAUCGAAAGAUGCCCUUGGCAGCACCAACUUGCAGUGAUGUUGCAAGUAA [Design5] | 183 | 156 | 165 | 180 | 159
9 | GUACCUUGGAAACAAGGACAGCUCACCGAAGGAGCGCGUGAAAACGCAGGUAGGUCGCGGUAGCGGAGUGAUGUUCCGCGAGGGC [Same State Arginine A GF 20] | 114 | 99.5 | 100 | 112 | 106
10 | GGUCUGCCGCAGUGAUGUUGCUGGCAUACACGAGGACCGGUACGGCCGCCACUCGAUGCUCCAAGAACCACCAAUCUUCGGUAUC [theeternabot_sameState_KL_Trp_A_48] | 257 | 235 | 229 | 236 | 236
11 | CUUGAUCGAGGAAGGAGCGGGCCGUCAUUGAGCGCAGUGAUGUUGCGGUCGACUAGUCGAGCCCAGGUAGGUCGCCUGGAGUAAG [Xeveis] | 202 | 159 | 173 | 160 | 192
12 | UUUAAAUAUAGUGAUGUUAUAUAACAAUGACGAGGACCGGUACGGCCGCCACUCGAGAGAGAUAAUGGUCUAUAGAAUCUAUAGC [AstrosSSTryA#4] | 726 | 622 | 803 | 870 | 508
13 | GGGCGGCAGACGGCCGCCACUCAUAGCAGCCAGUGAGUGAUGUUCGUGGCGGAGUGAUGUUCCUAGAGGACCGGGUUUGUUGUUC [Same State Tryptophan B GF 19] | 551 | 354 | 464 | 471 | 596
14 | AAACUUGCAGUGAUGUUGCAAGUAGGUGAUACCAGCAUCGAAAGAUGCCCUUGGCAGCACCAUCUUGUAACAUAGGUAUCACCAA [(H1)-(H2)-(T1)-(T2)-(H)'-(T)'_Design4] | 208 | 208 | 194 | 326 | 225
15 | GUUUGGCUCCGAAGACGGCAGUGGGAAAUAUAGGAUAUCUAGAAAUAGAGAAGGAUACUAGUGAUGUUAGUAUCGGAUAAAACAA | 85.9 | 76.3 | 73 | 83.7 | 79.8
16 | GCGCGUCAUGUUGGCGGGAACUAAGCCGAUACCAGCCGGGAAACCGGCCCUUGGCAGCGGCGCGCCGGAGUGAUGUUCCGACAGA [#2 Exclusion - Theophylline A Attempt #1 (HarryS)] | 226 | 246 | 254 | 284 | 164

Row | Sequence | apparent KD of K4 kissing-loop reporter (input ligand: FMN 200 uM) [nM] | apparent KD of K4 kissing-loop reporter (input ligand: arginine 13.2 mM) [nM] | apparent KD of K4 kissing-loop reporter (input ligand: none) [nM] | apparent KD of K4 kissing-loop reporter [1] [nM] | apparent KD of K4 kissing-loop reporter [2] [nM]
17 | AAGGUAAGUGCAUACAAAGUGAUGUUUUGUCGAGGACCGGUACGGCCGCCACUCGCCCAGUUAAGUGACCGACGUCAACGAAUAA [theeternabot_exclusion_KL_Trp_A_21] | 606 | 552 | 582 | 502 | 498
18 | GGAUAGGACAGAGGAUAUCCUGAGUCUACAAAGUAGGCUCAUAAAGGAUGAAUCCUAGUGAUGUUAGGAGAAGGCUGUCCUAUCG [FmnBX 16 - #SwitchBubble #StaticStem #Palindromic] | 110 | 84.6 | 76.3 | 79.5 | 88.7
19 | UUAACCAACAGCGAUACCAGCGUGGAGUGAUGUUCCGAGGAUCGGAGUGAUGUUCCGAAGCGCCCUUGGCAGCGCAGAAGCGCCA [Exclusion Theophylline B GF9] | 183 | 115 | 130 | 139 | 134
20 | GGUAGCGCUAGAGAUACCAGUCAUAUCGCUCUGGAGUGAUGUUCCGGAACGUGCGGAGAAGACCCUUGGCAGCUCAUGACGGUGU [Exclusion Theophylline B GF 4] | 210 | 194 | 224 | 281 | 214
21 | UGGGUGUAGUGAUGUUAUAUAGAGAGUGAUACCAGUUUAGAGAAGAACCCUUGGCAGCAUAGAAGAGUAUCAUUGGAGGAGGAGG [ExTheophyl.Av] | 361 | 413 | 336 | 268 | 289
22 | CCCAGUGAUGUUGGUUAAUAUAUUGAUUAACGAGGACCGGUACGGCCGCCACUCGAUAUUUCUAUAAUUAAAAGUUUUGUUUAAA [JR_SSTryptoA_Sub001] | 459 | 426 | 435 | 417 | 327
23 | AGUGGACAUGUCUAGAGUGAUGUUCUGGAUACCAGACACGAAAGUGUCCCUUGGCAGCCGGAGUGAUGUUCUGGAGUUCACUAAA [Omei KL Theo A Exc B v8] | 612 | 296 | 550 | 485 | 436
24 | AAUAUAGUGAUGUUAUAUAAGGAAAGAAGGCGAGGACCGGUACGGCCGCCACUCGAAAGGUGAGAAGGUGGCGAAGAAGAAAGAA [ExTryptoA.B] | 312 | 280 | 331 | 433 | 377
25 | UGUACCGAGUCAGGAUAUGGCGUCGAAAGACGAAACCAGUGAUGUUGGAAAAUCUGCGAAAGCAGUCCAGAAGGGACUUGGUACU [FmnBS 24 #SwitchBubble #StaticStem #DoubleMagnetSystem] | 193 | 236 | 302 | 227 | 226
26 | UUUAGAUGAAGUGAUACCAGACUUGAAAGUGAUGUUUUCCAAUAAUUUAAAUUAUUAGCUGUCCCUUGGCAGCACAGUUUAUUUA [JR_ExcTheophyB_Sub008] | 229 | 326 | 282 | 346 | 193
27 | AGUGAUGUUGAGUUAUCUUAGUGAAGUGAUCGAGGACCGGUACGGCCGCCACUCGAGUGAUGAGUGAGUGAUGUUUGUUUAGGGA [llkmullin] | 695 | 780 | 897 | 765 | 413
28 | UGACUGGAUUGAAGGAGCGCUAAACUCCUAGUGAUGUUAGGGACACAAGACAAAGUCUUGAGGCAGGUAGGUCGCAAUCUAGUCU [FiskerMod 5 - Jieux - Same State - Arginine B] | 345 | 253 | 288 | 310 | 265
29 | AUCAGCCUCAGAAGGAGCGUGAGUUUUAAGAGGCUGGAGUGAUGUUCCAGACAUAACGACUCACAGGUAGGUCGCUGAGACUAGU [Arg B SS t1] | 132 | 99.8 | 121 | 98.5 | 114
30 | UAGCAUUUGCUCGAGUGAUGUUCGAGCGAAGGAGCGCGAGAAAUCGCAGGUAGGUCGCGCUCGAACUAUGAGCGAUCAUUUAUUA [Arg A Ex t2c] | 284 | 217 | 244 | 463 | 370
31 | CAACUACCCGGAAGGAGCGCGGGUGUAAAUCAAAGGGCUUGAGUGAUGUUCAAGCGGAACCCGCAGGUAGGUCGCCGGGAAGCCC [Quaneson] | 113 | 114 | 119 | 114 | 122

Source: the supplement of paper PMC9170038
